From PMC9108610 (2022) come the findings set out here.

In this assay the target is T1, CSC (Vps26/Vps29-GFP/Vps35) (Saccharomyces cerevisiae, UniProt P40335).
T1 chain 1: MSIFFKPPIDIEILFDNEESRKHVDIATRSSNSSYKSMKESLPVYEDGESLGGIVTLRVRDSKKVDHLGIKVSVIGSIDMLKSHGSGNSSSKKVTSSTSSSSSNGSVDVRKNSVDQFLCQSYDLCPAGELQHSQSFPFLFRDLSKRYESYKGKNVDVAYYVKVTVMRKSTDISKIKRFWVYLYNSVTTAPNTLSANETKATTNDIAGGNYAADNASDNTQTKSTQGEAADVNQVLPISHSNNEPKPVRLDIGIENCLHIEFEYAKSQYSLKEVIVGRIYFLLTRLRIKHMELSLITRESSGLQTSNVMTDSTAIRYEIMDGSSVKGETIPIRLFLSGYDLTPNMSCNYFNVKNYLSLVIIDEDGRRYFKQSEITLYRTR
T1 chain 2: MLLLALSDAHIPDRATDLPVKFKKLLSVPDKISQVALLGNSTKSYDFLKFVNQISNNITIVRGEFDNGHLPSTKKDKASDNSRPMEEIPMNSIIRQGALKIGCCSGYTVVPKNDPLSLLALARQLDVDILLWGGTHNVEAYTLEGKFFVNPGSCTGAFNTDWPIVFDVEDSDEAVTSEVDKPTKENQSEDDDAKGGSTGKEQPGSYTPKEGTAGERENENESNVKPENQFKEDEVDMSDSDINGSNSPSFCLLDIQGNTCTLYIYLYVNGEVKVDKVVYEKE
T1 chain 3: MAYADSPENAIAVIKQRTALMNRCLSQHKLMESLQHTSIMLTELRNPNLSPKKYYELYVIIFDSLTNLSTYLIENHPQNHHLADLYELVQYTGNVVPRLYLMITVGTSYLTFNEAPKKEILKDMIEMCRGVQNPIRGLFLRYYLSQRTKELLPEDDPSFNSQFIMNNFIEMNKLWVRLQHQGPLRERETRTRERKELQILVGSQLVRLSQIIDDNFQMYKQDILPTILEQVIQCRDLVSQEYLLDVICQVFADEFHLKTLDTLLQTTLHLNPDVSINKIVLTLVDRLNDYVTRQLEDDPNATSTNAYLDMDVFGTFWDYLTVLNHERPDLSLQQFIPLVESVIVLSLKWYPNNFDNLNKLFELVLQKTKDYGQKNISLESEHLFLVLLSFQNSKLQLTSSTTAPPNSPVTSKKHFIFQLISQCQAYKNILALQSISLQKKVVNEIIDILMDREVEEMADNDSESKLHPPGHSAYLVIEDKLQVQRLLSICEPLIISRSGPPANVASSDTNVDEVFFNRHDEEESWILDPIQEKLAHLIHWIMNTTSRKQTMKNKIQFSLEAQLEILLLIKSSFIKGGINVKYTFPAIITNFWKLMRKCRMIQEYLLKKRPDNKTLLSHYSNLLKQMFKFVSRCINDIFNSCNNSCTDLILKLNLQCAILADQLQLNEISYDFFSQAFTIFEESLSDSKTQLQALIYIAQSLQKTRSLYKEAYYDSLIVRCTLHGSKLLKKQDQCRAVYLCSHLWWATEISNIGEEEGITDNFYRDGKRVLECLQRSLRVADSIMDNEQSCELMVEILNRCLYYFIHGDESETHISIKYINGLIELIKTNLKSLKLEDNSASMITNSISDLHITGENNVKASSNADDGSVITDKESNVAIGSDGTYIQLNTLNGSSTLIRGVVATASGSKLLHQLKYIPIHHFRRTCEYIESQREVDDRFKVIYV
Briefly: fluorescence titration (Vps29-GFP emission increase).

B1: Atg18 (protein)
chain: MSDSSPTINFINFNQTGTCISLGTSKGFKIFNCEPFGKFYSEDSGGYAIVEMLFSTSLLALVGIGDQPALSPRRLRIINTKKHSIICEVTFPTSILSVKMNKSRLVVLLQEQIYIYDINTMRLLHTIETNPNPRGLMAMSPSVANSYLVYPSPPKVINSEIKAHATTNNITLSVGGNTETSFKRDQQDAGHSDISDLDQYSSFTKRDDADPTSSNGGNSSIIKNGDVIVFNLETLQPTMVIEAHKGEIAAMAISFDGTLMATASDKGTIIRVFDIETGDKIYQFRRGTYATRIYSISFSEDSQYLAVTGSSKTVHIFKLGHSMSNNKLDSDDSNMEEAAADDSSLDTTSIDALSDEENPTRLAREPYVDASRKTMGRMIRYSSQKLSRRAARTLGQIFPIKVTSLLESSRHFASLKLPVETNSHVMTISSIGSPIDIDTSEYPELFETGNSASTESYHEPVMKMVPIRVVSSDGYLYNFVMDPERGGDCLILSQYSILMD
Turning to B1, the Kd (usually the free concentration of one partner at which half of the binding sites on the other are occupied at equilibrium, for simple one-to-one binding) is ~50 nM.
